Consider three molecules from patent US7785835 (QUEENSLAND UNIVERSITY OF TECHNOLOGY, dated 2010).

Assay [1] has as its target T1, vitronectin (UniProt P04004 20-478).
T1 construct: also called VN
Kind of assay: [^125I]-IGF-I bound to VN-coated wells (300 ng/well) with 5 ng IGFBP; IGFBP:VN binding read through labelled IGF-I.

The target in assay [2] is T1, vitronectin. Kind of assay: [^125I]-IGF-I bound to VN-coated wells with 2 ng of the non-glycosylated IGFBP-3 mutant; IGFBP:VN binding read through labelled IGF-I.

T1 sequence (P04004 20-478 limits assumed): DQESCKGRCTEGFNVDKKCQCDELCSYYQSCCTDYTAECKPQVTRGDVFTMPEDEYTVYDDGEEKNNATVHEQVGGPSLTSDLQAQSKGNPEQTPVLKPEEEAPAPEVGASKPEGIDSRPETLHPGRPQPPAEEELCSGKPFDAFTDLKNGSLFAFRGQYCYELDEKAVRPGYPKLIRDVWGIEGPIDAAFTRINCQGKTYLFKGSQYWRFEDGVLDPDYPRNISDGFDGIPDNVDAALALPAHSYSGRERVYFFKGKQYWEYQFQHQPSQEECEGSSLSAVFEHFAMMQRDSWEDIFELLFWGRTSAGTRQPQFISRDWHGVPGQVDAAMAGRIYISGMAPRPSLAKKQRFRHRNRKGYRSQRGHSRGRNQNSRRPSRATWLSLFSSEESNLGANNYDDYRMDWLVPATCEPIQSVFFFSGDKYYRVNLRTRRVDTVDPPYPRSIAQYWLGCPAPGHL

B1: recombinant IGFBP-2 produced in mammalian cells (other, UniProt P18065 36-325, looked up)
chain: AEVLFRCPPCTPERLAACGPPPVAPPAAVAAVAGGARMPCAELVREPGCGCCSVCARLEGEACGVYTPRCGQGLRCYPHPGSELPLQALVMGEGTCEKRRDAEYGASPEQVADNGDDHSEGGLVENHVDSTMNMLGGGGSAGRKPLKSGMKELAVFREKVTEQHRQMGKGGKHHLGLEEPKKLRPPPARTPCQQELDQVLERISTMRLPDERGPLEHLYSLHIPNCDKHGLYNLKQCKMSLNGQRGECWCVNPNTGKLIQGAPTIRGDPECHLFYNEQQEARGVHTQRMQ
For the molecule B1, in assay [1], the “fold increase in binding of labelled IGF-I to VN-coated wells against wells without IGFBP” value is around 2.8 fold.

B2: recombinant IGFBP-4 produced in mammalian cells (other, UniProt P22692 22-258, looked up)
chain: DEAIHCPPCSEEKLARCRPPVGCEELVREPGCGCCATCALGLGMPCGVYTPRCGSGLRCYPPRGVEKPLHTLMHGQGVCMELAEIEAIQESLQPSDKDEGDHPNNSFSPCSAHDRRCLQKHFAKIRDRSTSGGKMKVNGAPREDARPVPQGSCQSELHRALERLAASQSRTHEDLYIIPIPNCDRNGNFHPKQCHPALDGQRGKCWCVDRKTGVKLPGGLEPKGELDCHQLADSFRE
B2: the “fold increase in binding of labelled IGF-I to VN-coated wells against wells without IGFBP” value in assay [1] was around 3.8 fold.

B3: IGFBP-3 glycosylation mutant (Non-gly IGFBP-3) (other, UniProt P17936 28-291, looked up)
chain: GASSAGLGPVVRCEPCDARALAQCAPPPAVCAELVREPGCGCCLTCALSEGQPCGIYTERCGSGLRCQPSPDEARPLQALLDGRGLCVAASAVSRLRAYLLPAPPAPGAASESEEDRSAGSVESPSVSSTHRVSDPKFHPLHSKIIIIKKGHAKDSQRYKVDYESQSTDTQAFSSESKRETEYGPCRREMEDTLNHLKFLNVLSPRGVHIPNCDKKGFYKKKQCRPSKGRKRGFCWCVDKYGQPLPGYTTKGKEDVHCYSMQSK
modifications: non-glycosylated (glycosylation sites mutated)
notes: they probably count on mature IGFBP-3; also called non-glycosylated IGFBP-3 mutant; mutant IGFBP-3
For the molecule B3, in assay [2], the “fold increase in binding of labelled IGF-I to VN-coated wells” value worked out at 20 fold.
